The values below come from the nanobody polyreactivity screen of Harvey et al. (2022).

The data set can be described thus: yeast display, Sf9 membrane polyspecificity reagent, FACS + sequencing; frameworks hold sequencing errors. The method in brief: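 Genes from sorted yeast were amplified by colony PCR, read by MiSeq 2 × 250 sequencing and filtered on CDR length. These cells carried a synthetic nanobody library in Saccharomyces cerevisiae BJ5465 and were sorted by FACS into low and high (top ~1%) gates on anti-HA and streptavidin fluorescence. Polyreactivity is labelled according to the gate of origin.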
Regarding “QVQLVESGGGLVQAGGSLRLSCAASGNTFSPNAMGWYRQAPGKERELVAALDSRDGITYYADSVKGRFTISRDNAKNTVYLQMNSLKPEDPAVYYCNAEGSYPDVSPVLGYDYWGQGTQVTVSS”, the “polyreactivity (PSR sort gate)” value was “low polyreactivity”. For the sequence “QFQLVESGGGLVQAGGSLRLSCAASGNTFINYAMGWYRQATRKEREVVAAISKRGGSTYYADSVKGRFTISRDNAKNTVYLQMNSLKPEDTAVYYCAARLKTYKEGDYCGQGTQVTVSS”, the “polyreactivity (PSR sort gate)” value is given as “high polyreactivity”. Under “QVQLVESGGGLVQAGGSLRLSCAASGSIFYGNAMGWYRQAPGKERELVAAISTRGGSTYYADSVKGRFTISRDYAKNTVYLQMNSLKPEDTAVYYCNADSRRRLFDYWGQGTQVTVSS” stands “high polyreactivity”.

With “QVQLVESGGCLVQAGGSLRLSWAASGRTLGGYALGWYRQAPGKERELVAAINRSGTRTYYADSVKGRFTISRDKAKNTVYLQFNSLKPEDTAVYYCAASWYPGSRNYDYGGQGTQVTVSS”, the “polyreactivity (PSR sort gate)” value is “high polyreactivity”. In the case of “QVHLQESGGGLVQAVGSLRLSCAASGNISEYYDMGWYRQAPGKERKFVAGIDFGAITNYADSVKGRFTISRDNAKNTEYLQMRSLKPEDTAVYYCAAGVYDWYAYDYWGQGTQVTVSS” it was “high polyreactivity”.

In the case of “QVQLVESGGGLVQAGGSLRLSCAASGFILPNYAMGWYRQATGKERELVDAITYIGGSTYYADSVKGRFTISRDNAKNTVYLHMNSLKPEDTAVYYCAKYWLGYTKFDYWGQGTQVTVSS”, the “polyreactivity (PSR sort gate)” value is “low polyreactivity”.

As to “QVQLVESGGGLVQEGGSLRLSCAASGSTFSWYTMGWYRQAPGKERELVAAITRGGTTYYADSVKGRFTISRDNAKNTVYLQMISLKPEDTAVYYCAARYSRDVRMGYWGQGTQVTVSS”, the “polyreactivity (PSR sort gate)” value is on record as “high polyreactivity”.

On to “QVQLVESGGGLVQAGGSLRLSCAASGRIFGKYAMGWYRQAPGKEWELVAAISSSGGSTYYADSVKGRFTISRDNAKNTVYLQMNSLKPEDTAVYYCNAPQYWRRSYREYDYWGQGTQVTVSS”, for which the “polyreactivity (PSR sort gate)” value was “high polyreactivity”.

As to “QVQLVESGGGLVQAGGSLRLSCAASGSIFRFYAMGWYIQAPGKERELVAGITWSGASTYYAVSVKGRFTISRDNAKNTVYLQMNSLKPEDTAVYYCAAKSLIVRYDSWGQGTQVTVSS”, the “polyreactivity (PSR sort gate)” value is on record as “high polyreactivity”. Take “QVQLVESGGGLVHAGGSLRLSCAASGRIFAPYAMGWYRQAPGKERELVAAITSRGGSTYYADSVKGRFTISRDTAKNTVYLQMNSLKPEDTAVYYCNADYYGRPYYYWGQGTQVTVSS”: the “polyreactivity (PSR sort gate)” value was “high polyreactivity”. In the case of “QVQLVESGGGLVQAGGSLRLSCAASGSIFDINAMGWYRQAPGKERELVAVITDSGSTYYADSVKGRFTISRDNAKNTVYLQMNSLKPEDTAVYYCAAESSLLFFLMDYWGQATQVTVSS” it was “low polyreactivity”; in that of “QVQLVESGGGLVQAGGSLRLSCAASGRTFYSYVMGWYRQAPGKEREFVADISQSGGRTYYADSVKGRFTISRDNAKNTVYLQMNSLKPEDTAVYYCAAAKRGSYARGYYWGQGTQVTVSS”, “low polyreactivity”; in that of “QLQLVESGGGLVQAGGSLRLSCAASGRTFSIYAMGWSRQATGKERELVAAIRWSGGSTYYADSVKGRFTISRDNAKNSVYLQMNSLKPEDTAVYYCATRSRGLKFDYWGQGTLVTVSS”, “high polyreactivity”. On to “QVQLVESGGGLVQAGGSLRLSCAASGRTFVVNDMGWYRQAPGKERELVAAINYNAGSTFYADSVKGRFTISRYNAKKTVYYQMNSLKPEDTAVYYCATDVYGYVEYDYWGQGTQVTVSS”, for which the “polyreactivity (PSR sort gate)” value was “low polyreactivity”. As for “QVQLVESGGGLVQAGGSLRLSCAASGRIFTYYAMGWYRQAPGKERELVASITGSGGSTDYADSVKGRFTISRDNAKNTVYLQMNSLKPEDTAVYYCAADHSGVSRYDYWGQGTQVTVSS”, the “polyreactivity (PSR sort gate)” value is “low polyreactivity”.

For the sequence “QVQLVESGGGLVQAGGSLRLSCAASGSIFDSYVMGWYRQAPGKERELVAAITYSGGSTYADSVMGRFTISRDNAKNTVYLQMNSVKPEDTAVYYCAAASYFYLYLLEDYWGQGTQVTVSS”, the “polyreactivity (PSR sort gate)” value is given as “low polyreactivity”. In the case of “QVQLVESGGGLVQAGGSLRLSCAASGSTLDGNTMGWYRQAPGKERELVAAISRSGTSTYYADSVKGRFTISRDNAKNTVYLQMNSLKPEDTAVYYCNAEASDLYYVYLEYDYWGQGTQVTVSS” it was “low polyreactivity”; in that of “QVQLVESGEGLVQAGGSLRLSCAASGITFDAYTMGWYRQAPGKERELVAAITWSSTSTYYADSVKGRFTISRDNAKNTVYLQMNSLKPEDTAVFYCAAYRVGDYYWGQGTKVTVSS”, “low polyreactivity”. As to “QVQLVESGGGLVQAGGSLRLSCAASGFTFSYYAMGWYRQAPGKERELVAAITSGGSTYYADYVKGRFTISRDNAKNTVYLQMNRLKPEDTAVYYCNADGWYYPTDDYWGQGTQVTVSS”, the “polyreactivity (PSR sort gate)” value is “low polyreactivity”. Take “QVQLVVSGGGLVQAGGSLRLSCATTGRIFHRSAMGWYRQAPGKERGLVAGISSSGGSTYADSVKGRFTISRDNAKNTVYLQMNSLKPEDTAVYYCAAKWRHSGGGMYYWGQGTQVTVSS”: the “polyreactivity (PSR sort gate)” value is “high polyreactivity”. In the case of “QVQLVESGGGLVQAGGSLRLSCAASGSTFKRNAMGWYRQATGKERELVAAISTNGGRTYYADSVKGRFTISRDNAKNTVYLQMNSLKPEDTAVYYCAVDLFDGVTKLNYDYWGQGTQVTVSS” it was “low polyreactivity”. With “QVQLVESGGGLVQAGGSLRLSCAASGRIFRKYTMGWYRQAPGKERELVAAISRNGGDTYYADSVKGRFTISRDNAKNTVYLQMHSLKPEDPAVYYCNARTPPDSTHFAYWGQGTQVTVSS”, the “polyreactivity (PSR sort gate)” value is reported as “low polyreactivity”.

Take “QVQLVESGGGLVQSGGSLRLSCAASGSTFDPNTMGSYRQAPGKERELVATITSVDSTNYADSVKGRFTISRDNAMNTVYLQMNSLIPEDTAVYYCNAAYGGVFFYAYDYWGQGTQVTVSS”: the “polyreactivity (PSR sort gate)” value is “low polyreactivity”. In the case of “QVQLVESGGGLVQAGGSLRISCAASGRIFSGNAMGWYRQAPGKERELVAAISSGGSTYYADSVKGRFTISRYNAMNTVFLQMNILKPEDTAVYYCKKSRGRKWRGNYSVVKLLMGYWGQGSQVTVSS”, the “polyreactivity (PSR sort gate)” value was “low polyreactivity”. Consider “QVQLVESGGGLVQAGGSLRLSCAASGRIFRYYVMGWYRQAPGKETELVAAISRSGGTTYYADSVKGRFTISRDNAKNTVYLQMNSLKPEDTAVYYCAAVYGRDPGDYWGQGTQVTVSS”, for which the “polyreactivity (PSR sort gate)” value was “high polyreactivity”. In the case of “QVQLVESGGGLVQAGGSLRLSCAASGGTFSRNAMGWYRQAPGKERELVAAINSSGVSTSYADSVKGRFTISRDNAKNTVYLQMNSLKPEDTAVYYCADETSSAEVDYWGQGTQVTVSS”, the “polyreactivity (PSR sort gate)” value was “low polyreactivity”.

For the sequence “QVQLVDSGGGLLQAGGILSLSCAASGSIFPYYAMGWYRQAPGKERELVAVITTVGGSTYYADSVKGRFTISRDNAKYTVYLQMNSLKPEDTAVYYCADEEDYIYFYFSMDYWGQGTQVTVSS”, the “polyreactivity (PSR sort gate)” value is recorded as “low polyreactivity”. In the case of “QVQLGESGGGLVQAGGSLRLSCAASGGTFSQYAMGWYRHAPGKERELVARISRRGGSTSYADSVKGRFTISRDNAKNTVYLQMNSLKPEDTAVYYCAKDAPSVYPGRFGNTGGYAYDYWGQGTQVTVSS” it was “high polyreactivity”. In the case of “QVQLVESGGGLVQAGGSLRLSCAASGSILSTNDMGWYRQAPGKERELVAGISSGGSTNYADSVKGRFTISRDNAKNTVYLQMNSQKPEDTAVYYCATDVDKDPAEMDYWGQGTQVTVSS” it was “low polyreactivity”; in that of “QVQLVESGGGLVQAGGSLRLSCAASGGTFGRYAMGWYRQAPGKERELVASITTGGRTNYADSVKGRFTISRDNAKNTVYLQMNSLKPEDTAVYYCAKKRYGYPLPFYYWGQGTQVTVSS”, “high polyreactivity”; in that of “QVQLVESVGGLVQAGASLPLSCAASGRIFPYYAMGWYRQAPGKESEFVAAITKRGGSTSYADSVKGRFTISRDNAKNTVYLQMNSLKPEDTAVYYCAARRGSGFFTYYGGAFWGQGTLVTVSS”, “low polyreactivity”. Under “QVQLVESGGGLVQAGGSLRLSCAASGLIFSTYAMGWYRQAPGKERELVASISSSGGSTYYADSVKGRFTISRDNAKNTVYLQMNSLKPEDTAVYYCAAVTKRYQPTYYITYGYWGQGTQVTVSS” stands “high polyreactivity”; under “QVQLVESGGGLVQAGGSLRLSCAPSGSTFNNYALGGYRQAPGKERELVAAIRSIGGSTYYADSVKGRFTISRDNAKNTVYLQMNSLKPEDTAVYYCAADYFYLKWYEYWGQGTQVTVSS”, “high polyreactivity”.

For “QVQLVESGGGLVQAGGSLRLSCAASGRTFRSNAMGWYRQAPGKEREFVAAISGRGGITYYADSVKGRFTISRDNAKNTVYLQMNSLKPEDTAVYYCNADYWQAGDYLYYFVYYGGYDYWGQGTQVTVSS”, the “polyreactivity (PSR sort gate)” value is on record as “low polyreactivity”. Consider “QVQLVESGGGLVQAGGSLRLSCAASGRIFGYNAMGWYRQAPGKERELVAAIRRSGNTYADSVKGRFTISRDNAKNTVYLQMNSLKPEDTAVYYCAHRVSKRMYYWGQGTQVTVSS”, for which the “polyreactivity (PSR sort gate)” value is “high polyreactivity”.

“QVQLVESGGGLVQAGGSLRLSCAASGRIFGPYAMGWYRQAPGKERELVAAITWSSGITYYADSVKGRFTISRDNAKNTVYLQMNSLKPEDTAVYYCAADSRLPYYRIMEYWGQGTQVTVSS”: the “polyreactivity (PSR sort gate)” value is listed as “low polyreactivity”. As for “QVQLVESGGGLVQAGGSLRLSCAASGSIFRGNAMGWYRQAPGKERELVAAISKSGGSTYYADSVKGRFTISRDHAKNTVYLQMNSLKPEDTAVYYCAARTTYLYGMYYWGQGTQVTVSS”, the “polyreactivity (PSR sort gate)” value is reported as “low polyreactivity”. As for “QVQLVESGGGLVQAGGSLRLSCAASGFIFHRYAMGWYRQAPGKERELVAAITGRGSSTYYADSVKGRFTISRDNAKNTVYLQMNCLKPEDTGVYYCNAYRYQVYDTGWFGYWGQGTQVTVSS”, the “polyreactivity (PSR sort gate)” value is on record as “high polyreactivity”. Under “QVQLVESGGGLVHAGGSLRLSCAASGSNFGYNAMGWYIQAPGKERELVAAITSIGGNTYADSVKGRFTISRDNAKYTVYLQMNSLKPEDTAVYYCAAERNTDPIQVVYEFDYWGQGSQVTVSS” stands “low polyreactivity”; under “QVQLVDSGGGLVQAGGSLRLSCAASGITIPSYTMGWYRQGPGKERELVATIRNGGSTYYADSVKGRFTISRDNAKNTVYLQMNSLIPEDTAVYYCAAVPLWDYIFFYYLLYDYWGQGTQVTVSS”, “low polyreactivity”; under “QVQLVESGGGLVQAGGSLRLSCAASGSIFGTYAMGWYRQAPGKERELVAAITGRDGITYADSVKGRFTISCDNAKNTVYLQMNSLKPEDTAVYYCAAVSHGVYYQYRRRYYSWGQGTQVTVSS”, “high polyreactivity”.
